Measured values as given in patent US20160264649A1.

Columns and labels:
Assay in all cases: cell-based or functional assay
[1] = biological target: HIV-1 MGRM-F1-006 Env (HIV-1)
[2] = biological target: HIV-1 MGRM-G-009 Env (HIV-1)
[3] = biological target: HIV-1 MGRM-F1-015 Env (HIV-1)
[4] = biological target: HIV-1 MGRM-AE-004 Env (HIV-1)
[5] = biological target: HIV-1 MGRM-D-029 Env (HIV-1)
[6] = biological target: HIV-1 MGRM-F1-014 Env (HIV-1)
[7] = biological target: HIV-1 98IN022 Env on pseudovirus (HIV-1)
HIV-1 APV-13 Env (HIV-1) = biological target: HIV-1 APV-13 Env (HIV-1)
[8] = biological target: HIV-1 MGRM-G-013 Env (HIV-1)
[9] = biological target: HIV-1 MGRM-F1-018 Env (HIV-1)
[10] = biological target: HIV-1 MGRM-G-011 Env (HIV-1)
[11] = biological target: HIV-1 MGRM-C-002 Env on pseudovirus (HIV-1)
[12] = biological target: HIV-1 92UG005 Env (HIV-1)
[13] = biological target: HIV-1 MGRM-AG-012 Env (HIV-1)
[14] = biological target: HIV-1 MGRM-C-001 Env on pseudovirus (HIV-1)
[15] = biological target: HIV-1 IAVI-C22 Env (HIV-1)
[16] = biological target: HIV-1 TRO.11 (Acute) Env on pseudovirus (HIV-1)
[17] = biological target: aMLV envelope (negative control pseudovirus)
[18] = biological target: HIV-1 MGRM-G-015 Env (HIV-1)
aMLV envelope = biological target: aMLV envelope
[19] = biological target: HIV-1 MGRM-Chronic-B-004 Env on pseudovirus (HIV-1)
[20] = biological target: HIV-1 LAVIC_18 Env on pseudovirus (HIV-1)
[21] = biological target: HIV-1 MGRM-D-014 Env (HIV-1)
[22] = biological target: HIV-1 MGRM-C-025 Env on pseudovirus (HIV-1)
[23] = biological target: HIV-1 MGRM-F1-022 Env (HIV-1)
[24] = biological target: HIV-1 MGRM-C-008 Env on pseudovirus (HIV-1)
[25] = biological target: HIV-1 MGRM-C-020 Env on pseudovirus (HIV-1)
[26] = biological target: HIV-1 MGRM-D-020 Env (HIV-1)
[27] = biological target: HIV-1 MGRM-F1-004 Env (HIV-1)
[28] = biological target: HIV-1 MGRM-D-011 Env (HIV-1)
[29] = biological target: HIV-1 94UG103 Env (HIV-1)
[30] = biological target: HIV-1 MGRM-F1-012 Env (HIV-1)
[31] = biological target: HIV-1 MGRM-D-008 Env (HIV-1)
[32] = biological target: HIV-1 MGRM-D-024 Env (HIV-1)
[33] = biological target: HIV-1 MGRM-C-017 Env on pseudovirus (HIV-1)
[34] = biological target: HIV-1 92TH021 Env (HIV-1)
[35] = biological target: HIV-1 MGRM-G-014 Env (HIV-1)
[36] = biological target: HIV-1 NL43 Env on pseudovirus (HIV-1)
[37] = biological target: HIV-1 IAVI-C3 Env (HIV-1)
[38] = biological target: HIV-1 MGRM-C-019 Env on pseudovirus (HIV-1)
HIV-1 NL43 Env (HIV-1) = biological target: HIV-1 NL43 Env (HIV-1)
[39] = biological target: HIV-1 SC422661.8 (Acute) Env on pseudovirus (HIV-1)
[40] = biological target: HIV-1 MGRM-C-009 Env on pseudovirus (HIV-1)
[41] = biological target: HIV-1 APV_13 Env on pseudovirus (HIV-1)
[42] = biological target: HIV-1 MGRM-G-017 Env (HIV-1)
[43] = biological target: HIV-1 98CN009 Env on pseudovirus (HIV-1)
[44] = biological target: HIV-1 MGRM-C-023 Env on pseudovirus (HIV-1)
[45] = biological target: HIV-1 6535.3 (Acute) Env on pseudovirus (HIV-1)
[46] = biological target: HIV-1 QH0692.42 (Acute) Env on pseudovirus (HIV-1)
[47] = biological target: HIV-1 JRFL Env on pseudovirus (HIV-1)
[48] = biological target: HIV-1 98CN006 Env on pseudovirus (HIV-1)

1443_C16 (PG16) (TCN-116) (antibody), sequence (VH): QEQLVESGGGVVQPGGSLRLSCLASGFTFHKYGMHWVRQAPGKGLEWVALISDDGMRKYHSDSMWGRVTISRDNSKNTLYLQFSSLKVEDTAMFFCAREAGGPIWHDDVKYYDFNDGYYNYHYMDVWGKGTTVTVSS
1443_C16 (PG16) (TCN-116) (antibody), sequence (VL): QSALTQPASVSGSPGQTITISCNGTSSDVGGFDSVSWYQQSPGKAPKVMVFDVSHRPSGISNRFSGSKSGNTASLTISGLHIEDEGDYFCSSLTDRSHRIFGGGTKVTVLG

Q: With 1443_C16 (PG16) (TCN-116) (antibody) as the substance, how does the IC50 (pseudovirus neutralization) [1] read?
A: The IC50 (pseudovirus neutralization) was 0.27 µg/mL.

Q: What about the IC50 (µg/ml), pseudovirus neutralization [2] of the same substance?
A: Its IC50 (µg/ml), pseudovirus neutralization is > 50 µg/mL.

Q: What about the IC50 (pseudovirus neutralization) [3] of the same substance?
A: Its IC50 (pseudovirus neutralization) is > 50 µg/mL.

Q: What about the IC50 (µg/ml), pseudovirus neutralization [4] of the same substance?
A: Its IC50 (µg/ml), pseudovirus neutralization is 0.002 µg/mL.

Q: And the IC50 (µg/ml), pseudovirus neutralization [5]?
A: The IC50 (µg/ml), pseudovirus neutralization was > 50 µg/mL.

Q: What about the IC50 (pseudovirus neutralization) [6] of the same substance?
A: The IC50 (pseudovirus neutralization) was 0.01 µg/mL.

Q: And the IC50 [7]?
A: The IC50 was 0.003 µg/mL.

Q: What about the neutralization IC50 (HIV-1 APV-13 Env (HIV-1)) of the same substance?
A: Its neutralization IC50 is > 50 µg/mL.

Q: And the neutralization IC90 (HIV-1 APV-13 Env (HIV-1))?
A: The neutralization IC90 was > 50 µg/mL.

Q: And the IC50 (µg/ml), pseudovirus neutralization [8]?
A: Its IC50 (µg/ml), pseudovirus neutralization is > 50 µg/mL.

Q: What about the IC50 (pseudovirus neutralization) [9] of the same substance?
A: Its IC50 (pseudovirus neutralization) is 0.01 µg/mL.

Q: And the IC50 (µg/ml), pseudovirus neutralization [10]?
A: Its IC50 (µg/ml), pseudovirus neutralization is 0.04 µg/mL.

Q: And the IC50 [11]?
A: The IC50 was 28.3 µg/mL.

Q: And the IC50 (µg/ml), pseudovirus neutralization [12]?
A: The IC50 (µg/ml), pseudovirus neutralization was > 50 µg/mL.

Q: What about the neutralization IC50 [12] of the same substance?
A: The neutralization IC50 was > 50 µg/mL.

Q: What about the neutralization IC90 [12] of the same substance?
A: Its neutralization IC90 is > 50 µg/mL.

Q: What about the IC50 (µg/ml), pseudovirus neutralization [13] of the same substance?
A: Its IC50 (µg/ml), pseudovirus neutralization is 25.1 µg/mL.

Q: What about the IC50 [14] of the same substance?
A: The IC50 was 16.8 µg/mL.

Q: What about the neutralization IC50 [15] of the same substance?
A: The neutralization IC50 was 0.0687 µg/mL.

Q: What about the neutralization IC90 [15] of the same substance?
A: The neutralization IC90 was > 50 µg/mL.

Q: What about the IC50 [16] of the same substance?
A: Its IC50 is 0.22 µg/mL.

Q: What about the IC50 (pseudovirus neutralization) [17] of the same substance?
A: Its IC50 (pseudovirus neutralization) is > 50 µg/mL.

Q: What about the IC50 (µg/ml), pseudovirus neutralization [18] of the same substance?
A: The IC50 (µg/ml), pseudovirus neutralization was 5.33 µg/mL.

Q: And the neutralization IC50 (aMLV envelope)?
A: The neutralization IC50 was > 50 µg/mL.

Q: What about the neutralization IC90 (aMLV envelope) of the same substance?
A: The neutralization IC90 was > 50 µg/mL.

Q: And the IC50 [19]?
A: Its IC50 is 0.01 µg/mL.

Q: And the IC50 [20]?
A: Its IC50 is 0.02 µg/mL.

Q: And the IC50 (µg/ml), pseudovirus neutralization [21]?
A: The IC50 (µg/ml), pseudovirus neutralization was 0.003 µg/mL.

Q: What about the IC50 [22] of the same substance?
A: Its IC50 is 0.04 µg/mL.

Q: And the IC50 (pseudovirus neutralization) [23]?
A: Its IC50 (pseudovirus neutralization) is 0.08 µg/mL.

Q: What about the IC50 [24] of the same substance?
A: The IC50 was > 50 µg/mL.

Q: And the IC50 [25]?
A: Its IC50 is > 50 µg/mL.

Q: And the IC50 (µg/ml), pseudovirus neutralization [26]?
A: Its IC50 (µg/ml), pseudovirus neutralization is 16.3 µg/mL.

Q: And the IC50 (pseudovirus neutralization) [27]?
A: The IC50 (pseudovirus neutralization) was 0.43 µg/mL.

Q: And the IC50 (µg/ml), pseudovirus neutralization [28]?
A: The IC50 (µg/ml), pseudovirus neutralization was 0.01 µg/mL.

Q: What about the neutralization IC50 [29] of the same substance?
A: The neutralization IC50 was 0.008 µg/mL.

Q: And the neutralization IC90 [29]?
A: The neutralization IC90 was 1.59 µg/mL.

Q: And the IC50 (pseudovirus neutralization) [30]?
A: Its IC50 (pseudovirus neutralization) is 0.003 µg/mL.

Q: What about the IC50 (µg/ml), pseudovirus neutralization [31] of the same substance?
A: The IC50 (µg/ml), pseudovirus neutralization was > 50 µg/mL.

Q: What about the IC50 (µg/ml), pseudovirus neutralization [32] of the same substance?
A: The IC50 (µg/ml), pseudovirus neutralization was 0.02 µg/mL.

Q: And the IC50 [33]?
A: Its IC50 is 1.8 µg/mL.

Q: What about the IC50 (µg/ml), pseudovirus neutralization [34] of the same substance?
A: Its IC50 (µg/ml), pseudovirus neutralization is 0.1 µg/mL.

Q: And the neutralization IC50 [34]?
A: Its neutralization IC50 is 0.127 µg/mL.

Q: What about the neutralization IC90 [34] of the same substance?
A: Its neutralization IC90 is 23.4 µg/mL.

Q: And the IC50 (µg/ml), pseudovirus neutralization [35]?
A: Its IC50 (µg/ml), pseudovirus neutralization is 6.98 µg/mL.

Q: And the IC50 [36]?
A: The IC50 was 0.02 µg/mL.

Q: What about the neutralization IC50 [37] of the same substance?
A: Its neutralization IC50 is 14.8 µg/mL.

Q: What about the neutralization IC90 [37] of the same substance?
A: Its neutralization IC90 is > 50 µg/mL.

Q: And the IC50 [38]?
A: The IC50 was 0.002 µg/mL.

Q: And the neutralization IC50 (HIV-1 NL43 Env (HIV-1))?
A: Its neutralization IC50 is < 0.0025 µg/mL.

Q: What about the neutralization IC90 (HIV-1 NL43 Env (HIV-1)) of the same substance?
A: Its neutralization IC90 is > 50 µg/mL.

Q: What about the IC50 [39] of the same substance?
A: The IC50 was 1.13 µg/mL.

Q: And the IC50 [40]?
A: Its IC50 is > 50 µg/mL.

Q: And the IC50 [41]?
A: Its IC50 is > 50 µg/mL.

Q: What about the IC50 (µg/ml), pseudovirus neutralization [42] of the same substance?
A: Its IC50 (µg/ml), pseudovirus neutralization is 0.02 µg/mL.

Q: What about the IC50 [43] of the same substance?
A: Its IC50 is 5.76 µg/mL.

Q: And the IC50 [44]?
A: The IC50 was 0.09 µg/mL.

Q: And the IC50 [45]?
A: Its IC50 is 36.9 µg/mL.

Q: And the IC50 [46]?
A: Its IC50 is > 50 µg/mL.

Q: What about the IC50 [47] of the same substance?
A: Its IC50 is > 50 µg/mL.

Q: And the IC50 [48]?
A: Its IC50 is > 50 µg/mL.
